Our source for the percent co-sedimented with MTs values is PMC7891324.

The target of this assay is microtubules assembled from highly purified (MAP-free) porcine brain tubulin (porcine) (UniProt P02550). The assay can be described thus: co-sedimentation; MTs assembled from 25 µM PC-purified (MAP-free) porcine brain tubulin in PEM (100 mM Pipes pH 6.8, 2 mM EGTA, 1 mM MgCl2) with 1 mM GTP, 10% glycerol, 1 mM DTT, 0.5% Triton X-100, 1 h 37°C; 2.5 µM recombinant plectin fragment added for 60 min; 45 000 g 30 min 37°C; supernatant and pellet by SDS-PAGE, Coomassie, densitometry.

In the case of “plectin fragment P2(2α3α)-8 (exons 2(2α3α)-8), untagged (domain or fragment)”, the percent co-sedimented with MTs came out at 36.5%.

Consider “plectin fragment P1c(2α3α)-8 (exons 1c(2α3α)-8), untagged (domain or fragment)”, for which the percent co-sedimented with MTs is 52%.
